The text below walks through data of article PMC8156467, “Disruption of YY1-EZH2 Interaction Using Synthetic Peptides Inhibits Breast Cancer Development” (Cancers, 2021).

Sequences and labels used below:
B1: GST-EZH2 (385–618) (domain or fragment)
chain: not shown
notes: Vector pGEX-4T-1; source: E. coli; held on Glutathione-Sepharose beads from bacterial lysate (pull-down); purified (SPR)
B2: GST-EZH2 (465–519) (domain or fragment)
chain: not shown
notes: Vector pGEX-4T-1; source: E. coli; held on Glutathione-Sepharose beads from bacterial lysate
B3: GST-EZH2 (465–545) (domain or fragment)
chain: not shown
notes: as for B1

T1 sequence (P25490 whole entry): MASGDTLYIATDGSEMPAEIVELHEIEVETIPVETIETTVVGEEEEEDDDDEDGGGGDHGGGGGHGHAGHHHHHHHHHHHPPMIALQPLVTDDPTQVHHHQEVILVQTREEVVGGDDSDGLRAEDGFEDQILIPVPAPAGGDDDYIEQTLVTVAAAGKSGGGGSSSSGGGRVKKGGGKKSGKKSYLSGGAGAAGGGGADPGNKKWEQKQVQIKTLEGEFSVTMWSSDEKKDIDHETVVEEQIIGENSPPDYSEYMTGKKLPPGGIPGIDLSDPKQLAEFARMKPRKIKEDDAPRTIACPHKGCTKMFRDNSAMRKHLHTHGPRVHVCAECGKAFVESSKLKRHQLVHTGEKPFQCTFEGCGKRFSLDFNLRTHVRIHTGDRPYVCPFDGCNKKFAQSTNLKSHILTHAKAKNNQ

The experiment addresses T1, His×6-YY1 (UniProt P25490 1-414).
T1 construct: Yin Yang 1 (YY1); The construct and its host are not described in the methods; also called purified His×6-YY1
The experiment is described as follows: pull-down; GST-EZH2 fragments from E. coli lysates held on Glutathione-Sepharose beads, washed, 1.0 µg of purified His×6-YY1 added for 4 h at 4 °C; 20 mM Tris-HCl pH 7.5, 150 mM NaCl, 0.1% NP-40. Conditions: both partners purified.
With B1, the binding result was “binds”.

For B2, the binding result is “binds”.

Turning to B3, the binding result is listed as “binds”.
